Source: patent US20030171565

B1: SH2 domain-truncated form of SHP-2 (protein)
chain: NPMVETLGTVLQLKQPLNTTRINAAEIESRVRELSKLAETTDKVKQGFWEEFETLQQQECKLLYSRKEGQRQENKNKNRYKNILPFDHTRVVLHDGDPNEPVSDYINANIIMPEFETKCNNSKPKKSYIATQGCLQNTVNDFWRMVFQENSRVIVMTTKEVERGKSKCVKYWPDEYALKEYGVMRVRNVKESAAHDYTLRELKLSKVGQGNTERTVWQYHFRTWPDHGVPSDPGGVLDFLEEVHHKQESIMDAGPVVVHCSAGIGRTGTFIVIDILIDIIREKGVDCDIDVPKTIQMVRSQRSGMVQTEAQYRFIYMAVQHYIETLQRRIEEEQKSKRKGHEYTNIKYSLADQTSGDQSPLPPCTPTPPCAEMREDSARVYENVGLMQQQKSFR
B2: tyrosine phosphatase SHP-2, native full-length form (protein)
chain: TSRRWFHPNITGVEAENLLLTRGVDGSFLARPSKSNPGDFTLSVRRNGAVTHIKIQNTGDYYDLYGGEKFATLAELVQYYMEHHGQLKEKNGDVIELKYPLNCADPTSERWFHGHLSGKEAEKLLTEKGKHGSFLVRESQSHPGDFVLSVRTGDDKGESNDGKSKVTHVMIRCQELKYDVGGGERFDSLTDLVEHYKKNPMVETLGTVLQLKQPLNTTRINAAEIESRVRELSKLAETTDKVKQGFWEEFETLQQQECKLLYSRKEGQRQENKNKNRYKNILPFDHTRVVLHDGDPNEPVSDYINANIIMPEFETKCNNSKPKKSYIATQGCLQNTVNDFWRMVFQENSRVIVMTTKEVERGKSKCVKYWPDEYALKEYGVMRVRNVKESAAHDYTLRELKLSKVGQGNTERTVWQYHFRTWPDHGVPSDPGGVLDFLEEVHHKQESIMDAGPVVVHCSAGIGRTGTFIVIDILIDIIREKGVDCDIDVPKTIQMVRSQRSGMVQTEAQYRFIYMAVQHYIETLQRRIEEEQKSKRKGHEYTNIKYSLADQTSGDQSPLPPCTPTPPCAEMREDSARVYENVGLMQQQKSFR

Molecular target: T1, protein zero related (PZR), tyrosine-phosphorylated
T1 chain: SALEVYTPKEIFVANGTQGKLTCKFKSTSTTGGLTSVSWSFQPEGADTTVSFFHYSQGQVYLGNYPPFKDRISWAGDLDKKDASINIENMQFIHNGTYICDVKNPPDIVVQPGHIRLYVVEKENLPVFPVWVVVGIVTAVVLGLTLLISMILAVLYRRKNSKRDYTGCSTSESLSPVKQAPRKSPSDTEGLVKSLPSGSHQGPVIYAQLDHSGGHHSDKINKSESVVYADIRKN

Protein	in vitro dephosphorylation of immuno-purified tyrosine-phosphorylated PZR (anti-phosphotyrosine Western blot)	dephosphorylation of purified p43 in vitro (anti-phosphotyrosine Western blot)	in vitro dephosphorylation of immuno-purified tyrosine-phosphorylated PZR
B1	the truncated enzyme had essentially no effect	–	–
B2	full length SHP-2 caused rapid dephosphorylation	SHP-2 caused complete dephosphorylation of p43	higher concentrations of SHP-2 (up to 5 µg/ml) helped to push the dephosphorylation to near completion
